B1: Flag-p47 (other, UniProt O35987 1-370, looked up)
chain: MAEERQDALREFVAVTGAEEDRARFFLESAGWDLQIALASFYEDGGDEDIVTISQATPSSVSRGTAPSDNRVTSFRDLIHDQDEEEEEEEGQRFYAGGSERSGQQIVGPPRKKSPNELVDDLFKGAKEHGAVAVERVTKSPGETSKPRPFAGGGYRLGAAPEEESAYVAGERRRHSGQDVHVVLKLWKTGFSLDNGDLRSYQDPSNAQFLESIRRGEVPAELRRLAHGGQVNLDMEDHRDEDFVKPKGAFKAFTGEGQKLGSTAPQVLNTSSPAQQAENEAKASSSILINEAEPTTNIQIRLADGGRLVQKFNHSHRISDIRLFIVDARPAMAATSFVLMTTFPNKELADENQTLKEANLLNAVIVQRLT
notes: also called RDB 2148; not shown: N-terminal Flag tag
B2: Flag-UBXD7ΔUBX (other, not shown: small tags and cut ends)
chain: MAAHGGSAASSALKGLIQQFTTITGASESVGKHMLEACNNNLEMAVTMFLDGGGIAEEPSTSSASVSTVRPHTEEEVRAPIPQKQEILVEPEPLFGAPKRRRPARSIFDGFRDFQTETIRQEQELRNGGAIDKKLTTLADLFRPPIDLMHKGSFETAKECGQMQNKWLMINIQNVQDFACQCLNRDVWSNEAVKNIIREHFIFWQVYHDSEEGQRYIQFYKLGDFPYVSILDPRTGQKLVEWHQLDVSSFLDQVTGFLGEHGQLDGLSSSPPKKCARSESLIDASEDSQLEAAIRASLQETHFDSTQTKQDSRSDEESESELFSGSEEFISVCGSDEEEEVENLAKSRKSPHKDLGHRKEENRRPLTEPPVRTDPGTATNHQGLPAVDSEILEMPPEKAD
notes: also called UBXD7(1-400); truncated UBXD7
B3: endogenous UBXD7 (other, human, UniProt O94888 2-489, looked up)
chain: AAHGGSAASSALKGLIQQFTTITGASESVGKHMLEACNNNLEMAVTMFLDGGGIAEEPSTSSASVSTVRPHTEEEVRAPIPQKQEILVEPEPLFGAPKRRRPARSIFDGFRDFQTETIRQEQELRNGGAIDKKLTTLADLFRPPIDLMHKGSFETAKECGQMQNKWLMINIQNVQDFACQCLNRDVWSNEAVKNIIREHFIFWQVYHDSEEGQRYIQFYKLGDFPYVSILDPRTGQKLVEWHQLDVSSFLDQVTGFLGEHGQLDGLSSSPPKKCARSESLIDASEDSQLEAAIRASLQETHFDSTQTKQDSRSDEESESELFSGSEEFISVCGSDEEEEVENLAKSRKSPHKDLGHRKEENRRPLTEPPVRTDPGTATNHQGLPAVDSEILEMPPEKADGVVEGIDVNGPKAQLMLRYPDGKREQITLPEQAKLLALVKHVQSKGYPNERFELLTNFPRRKLSHLDYDITLQEAGLCPQETVFVQERN
B4: Flag-UBXD7 (other, UniProt O94888 1-489, looked up)
chain: MAAHGGSAASSALKGLIQQFTTITGASESVGKHMLEACNNNLEMAVTMFLDGGGIAEEPSTSSASVSTVRPHTEEEVRAPIPQKQEILVEPEPLFGAPKRRRPARSIFDGFRDFQTETIRQEQELRNGGAIDKKLTTLADLFRPPIDLMHKGSFETAKECGQMQNKWLMINIQNVQDFACQCLNRDVWSNEAVKNIIREHFIFWQVYHDSEEGQRYIQFYKLGDFPYVSILDPRTGQKLVEWHQLDVSSFLDQVTGFLGEHGQLDGLSSSPPKKCARSESLIDASEDSQLEAAIRASLQETHFDSTQTKQDSRSDEESESELFSGSEEFISVCGSDEEEEVENLAKSRKSPHKDLGHRKEENRRPLTEPPVRTDPGTATNHQGLPAVDSEILEMPPEKADGVVEGIDVNGPKAQLMLRYPDGKREQITLPEQAKLLALVKHVQSKGYPNERFELLTNFPRRKLSHLDYDITLQEAGLCPQETVFVQERN
notes: Wild-type plasmid in pCMV5B; expressed in 293 or HeLa cells and pulled down on anti-Flag beads; also called RDB 2155; not shown: N-terminal Flag tag
B5: endogenous UFD1 (other, human, UniProt Q92890-1 1-343, looked up)
chain: MFSFNMFDHPIPRVFQNRFSTQYRCFSVSMLAGPNDRSDVEKGGKIIMPPSALDQLSRLNITYPMLFKLTNKNSDRMTHCGVLEFVADEGICYLPHWMMQNLLLEEDGLVQLETVNLQVATYSKSKFCYLPHWMMQNLLLEEGGLVQVESVNLQVATYSKFQPQSPDFLDITNPKAVLENALRNFACLTTGDVIAINYNEKIYELRVMETKPDKAVSIIECDMNVDFDAPLGYKEPERQVQHEESTEGEADHSGYAGELGFRAFSGSGNRLDGKKKGVEPSPSPIKPGDIKRGIPNYEFKLGKITFIRNSRPLVKKVEEDEAGGRFVAFSGEGQSLRKKGRKP

What was measured:
endogenous NPL4 [1] = biological target: T1, endogenous NPL4 (human, UniProt Q8TAT6-2 2-617, limits assumed); experiment: Flag co-IP, 293 cells, MudPIT MS
T1 sequence (looked up): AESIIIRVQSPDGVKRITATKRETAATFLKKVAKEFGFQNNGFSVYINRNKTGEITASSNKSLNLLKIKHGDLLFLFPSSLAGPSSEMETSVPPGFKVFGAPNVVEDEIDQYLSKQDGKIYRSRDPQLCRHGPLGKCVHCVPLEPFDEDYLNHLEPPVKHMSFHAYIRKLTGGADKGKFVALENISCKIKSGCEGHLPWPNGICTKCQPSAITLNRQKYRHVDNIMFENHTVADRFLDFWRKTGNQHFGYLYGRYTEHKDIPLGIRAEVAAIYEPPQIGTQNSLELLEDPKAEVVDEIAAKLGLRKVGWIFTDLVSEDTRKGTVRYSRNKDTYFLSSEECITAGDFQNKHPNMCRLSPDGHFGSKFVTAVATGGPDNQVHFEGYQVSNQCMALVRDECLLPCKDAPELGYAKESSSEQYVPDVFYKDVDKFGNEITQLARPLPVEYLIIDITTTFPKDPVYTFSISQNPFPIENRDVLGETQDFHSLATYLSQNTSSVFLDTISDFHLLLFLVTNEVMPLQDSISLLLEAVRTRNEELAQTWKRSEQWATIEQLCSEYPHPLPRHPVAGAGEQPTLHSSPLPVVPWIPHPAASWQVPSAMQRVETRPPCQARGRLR
Method: (§1) For immunoprecipitation experiments, the cells were lysed in buffer A (50 mM HEPES/KOH, pH 7.5; 5 mM Mg(OAc)₂; 70 mM KOAc; 0.2% Triton X-100; 10% glycerol; 0.2 mM EDTA; protease inhibitors) and incubated with anti-Flag agarose beads (Sigma) or anti-Myc sepharose beads (Covance).
(§2) Mass spectrometrical sample analysis was performed as described previously (Graumann et al., 2004) using a high-pressure liquid chromatography pump (Agilent) in line to a LCQ DecaXP electrospray ion trap mass spectrometer (ThermoFinnigan). In brief, 2-4 mg of protein extract were incubated with anti-Flag or anti-Myc beads and the immunoprecipitated proteins were eluted with saturated urea. The eluates were then proteolitically digested using sequentially endoproteinase Lys-C and trypsin. The resulting peptide mixtures were pressure-loaded onto triphasic microcapillary columns and sample separation was achieved using a chromatography program consisting of six salt steps, each followed by an organic gradient. The eluting peptides were electrosprayed into the mass spectrometer and the column eluate was continuously analyzed. One full-range mass scan ([…]) was followed by three data-dependent tandem mass spectrometry (MS/MS) spectra. Sequence database matching was performed against the IPI human database (Kersey et al., 2004) version 3.15.1 using Sequest (Eng et al., 1994) and the results were filtered with DTASelect (Tabb et al., 2002), using the parameters indicated in Graumann et al. (2004).

endogenous p97 [2] = biological target: T2, endogenous p97 (human, UniProt P55072 2-806); experiment: Flag co-IP, 293 cells, MudPIT MS
T2 construct: also called VCP
Method: as §1, §2

endogenous NPL4 [3] = biological target: T1, endogenous NPL4; experiment: Flag co-IP, mass spectrometry and immunoblotting
Cullin 2 = biological target: T3, Cullin 2 (human, UniProt Q13617 1-745); experiment: Flag co-IP, HeLa cells, western blot
T3 construct: also called CUL2

Cullin 1 = biological target: T4, Cullin 1 (human, UniProt Q13616 1-776, limits assumed); experiment: Flag co-IP, HeLa cells, western blot
T4 construct: also called CUL1

endogenous p97 [4] = biological target: T2, endogenous p97; experiment: Flag co-IP from HeLa cells, western blot
endogenous p97 [5] = biological target: T2, endogenous p97; experiment: Superdex 200 gel filtration of HeLa extracts, western blot
Excerpt: Luc—luciferase (C) HeLa cell extracts were fractionated on a Superdex 200 gel filtration column. Individual fractions were concentrated by TCA precipitation and subjected to western blotting using specific antibodies. All proteins were endogenously expressed.

[6] = biological target: T5, Ubiquitin conjugation factor E4 B, UBE4B (Ufd2ortholog) (human, UniProt O95155 1-1302); experiment: co-IP, MudPIT MS
T5 sequence (looked up): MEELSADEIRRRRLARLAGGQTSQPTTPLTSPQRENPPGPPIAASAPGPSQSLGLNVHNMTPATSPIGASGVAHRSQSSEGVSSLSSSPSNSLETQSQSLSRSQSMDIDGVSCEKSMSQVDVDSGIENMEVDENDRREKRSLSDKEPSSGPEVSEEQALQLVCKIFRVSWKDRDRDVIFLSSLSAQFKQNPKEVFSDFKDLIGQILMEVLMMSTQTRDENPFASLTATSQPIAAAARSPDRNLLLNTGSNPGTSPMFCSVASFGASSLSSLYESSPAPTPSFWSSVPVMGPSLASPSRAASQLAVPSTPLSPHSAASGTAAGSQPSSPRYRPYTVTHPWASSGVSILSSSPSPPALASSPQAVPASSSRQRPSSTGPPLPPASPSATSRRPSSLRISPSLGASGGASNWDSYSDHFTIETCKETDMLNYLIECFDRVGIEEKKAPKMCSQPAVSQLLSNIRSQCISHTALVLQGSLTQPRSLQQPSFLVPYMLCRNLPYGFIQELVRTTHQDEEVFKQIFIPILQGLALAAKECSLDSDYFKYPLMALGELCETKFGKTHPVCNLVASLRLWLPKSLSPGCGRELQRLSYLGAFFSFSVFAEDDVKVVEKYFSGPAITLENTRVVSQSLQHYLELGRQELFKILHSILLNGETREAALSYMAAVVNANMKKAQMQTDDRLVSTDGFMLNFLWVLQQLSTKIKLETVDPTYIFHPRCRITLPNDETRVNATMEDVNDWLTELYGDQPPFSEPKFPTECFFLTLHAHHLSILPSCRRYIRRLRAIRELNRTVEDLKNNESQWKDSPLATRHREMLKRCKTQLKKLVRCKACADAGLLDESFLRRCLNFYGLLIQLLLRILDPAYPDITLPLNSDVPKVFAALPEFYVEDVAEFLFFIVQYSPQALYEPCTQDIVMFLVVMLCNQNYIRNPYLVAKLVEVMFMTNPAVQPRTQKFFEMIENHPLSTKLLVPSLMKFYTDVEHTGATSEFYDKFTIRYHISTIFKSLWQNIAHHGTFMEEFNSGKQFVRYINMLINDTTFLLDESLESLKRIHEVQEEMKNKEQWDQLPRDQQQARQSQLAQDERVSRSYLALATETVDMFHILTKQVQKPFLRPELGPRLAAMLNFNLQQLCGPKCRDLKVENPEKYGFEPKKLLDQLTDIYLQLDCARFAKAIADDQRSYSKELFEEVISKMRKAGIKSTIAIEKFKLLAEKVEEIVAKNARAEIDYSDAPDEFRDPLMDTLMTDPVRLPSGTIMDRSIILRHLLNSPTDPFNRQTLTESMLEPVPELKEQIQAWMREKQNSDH

Flag-p47 = biological target: B1; experiment: Flag co-IP, mass spectrometry and immunoblotting

T2 sequence (P55072 2-806 limits assumed): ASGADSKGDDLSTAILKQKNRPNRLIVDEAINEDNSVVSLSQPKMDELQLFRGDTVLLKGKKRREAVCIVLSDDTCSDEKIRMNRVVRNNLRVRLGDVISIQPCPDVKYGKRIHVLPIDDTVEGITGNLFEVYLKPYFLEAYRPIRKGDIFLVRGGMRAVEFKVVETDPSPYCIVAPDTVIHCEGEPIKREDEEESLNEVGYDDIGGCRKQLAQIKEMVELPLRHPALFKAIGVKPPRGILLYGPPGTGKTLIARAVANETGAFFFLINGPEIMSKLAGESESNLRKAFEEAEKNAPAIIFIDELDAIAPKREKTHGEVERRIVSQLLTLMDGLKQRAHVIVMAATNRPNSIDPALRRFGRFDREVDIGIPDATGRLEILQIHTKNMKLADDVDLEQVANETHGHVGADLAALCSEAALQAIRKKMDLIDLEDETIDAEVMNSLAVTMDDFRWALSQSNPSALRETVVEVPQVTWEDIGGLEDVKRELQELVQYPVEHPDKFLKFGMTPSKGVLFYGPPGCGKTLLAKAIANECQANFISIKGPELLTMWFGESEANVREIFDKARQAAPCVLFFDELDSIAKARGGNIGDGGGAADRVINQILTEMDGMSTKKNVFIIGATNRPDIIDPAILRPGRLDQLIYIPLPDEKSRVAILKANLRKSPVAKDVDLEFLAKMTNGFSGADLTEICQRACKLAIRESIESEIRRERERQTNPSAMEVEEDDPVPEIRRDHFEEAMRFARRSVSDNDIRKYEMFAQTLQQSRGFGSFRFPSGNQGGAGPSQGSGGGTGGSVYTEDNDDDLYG
T3 sequence (Q13617 whole entry): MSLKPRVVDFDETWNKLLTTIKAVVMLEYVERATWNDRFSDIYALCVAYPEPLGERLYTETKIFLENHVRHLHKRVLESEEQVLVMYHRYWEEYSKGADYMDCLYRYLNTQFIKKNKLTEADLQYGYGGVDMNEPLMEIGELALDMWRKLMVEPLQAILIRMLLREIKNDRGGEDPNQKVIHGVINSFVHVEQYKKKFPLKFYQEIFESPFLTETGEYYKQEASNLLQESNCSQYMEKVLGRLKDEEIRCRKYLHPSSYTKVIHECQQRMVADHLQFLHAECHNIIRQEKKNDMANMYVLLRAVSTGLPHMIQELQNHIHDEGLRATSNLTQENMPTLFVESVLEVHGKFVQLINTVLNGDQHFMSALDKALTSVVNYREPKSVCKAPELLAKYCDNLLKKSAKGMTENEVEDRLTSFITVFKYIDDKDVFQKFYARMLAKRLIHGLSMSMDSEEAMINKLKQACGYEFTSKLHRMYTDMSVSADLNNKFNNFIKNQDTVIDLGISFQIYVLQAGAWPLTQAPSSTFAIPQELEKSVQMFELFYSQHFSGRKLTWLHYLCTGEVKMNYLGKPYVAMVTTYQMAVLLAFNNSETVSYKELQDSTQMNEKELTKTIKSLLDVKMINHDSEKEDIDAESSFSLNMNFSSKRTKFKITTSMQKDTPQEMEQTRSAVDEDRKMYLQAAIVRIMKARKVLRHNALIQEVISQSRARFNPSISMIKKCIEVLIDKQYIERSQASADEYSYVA
T4 sequence (Q13616 whole entry): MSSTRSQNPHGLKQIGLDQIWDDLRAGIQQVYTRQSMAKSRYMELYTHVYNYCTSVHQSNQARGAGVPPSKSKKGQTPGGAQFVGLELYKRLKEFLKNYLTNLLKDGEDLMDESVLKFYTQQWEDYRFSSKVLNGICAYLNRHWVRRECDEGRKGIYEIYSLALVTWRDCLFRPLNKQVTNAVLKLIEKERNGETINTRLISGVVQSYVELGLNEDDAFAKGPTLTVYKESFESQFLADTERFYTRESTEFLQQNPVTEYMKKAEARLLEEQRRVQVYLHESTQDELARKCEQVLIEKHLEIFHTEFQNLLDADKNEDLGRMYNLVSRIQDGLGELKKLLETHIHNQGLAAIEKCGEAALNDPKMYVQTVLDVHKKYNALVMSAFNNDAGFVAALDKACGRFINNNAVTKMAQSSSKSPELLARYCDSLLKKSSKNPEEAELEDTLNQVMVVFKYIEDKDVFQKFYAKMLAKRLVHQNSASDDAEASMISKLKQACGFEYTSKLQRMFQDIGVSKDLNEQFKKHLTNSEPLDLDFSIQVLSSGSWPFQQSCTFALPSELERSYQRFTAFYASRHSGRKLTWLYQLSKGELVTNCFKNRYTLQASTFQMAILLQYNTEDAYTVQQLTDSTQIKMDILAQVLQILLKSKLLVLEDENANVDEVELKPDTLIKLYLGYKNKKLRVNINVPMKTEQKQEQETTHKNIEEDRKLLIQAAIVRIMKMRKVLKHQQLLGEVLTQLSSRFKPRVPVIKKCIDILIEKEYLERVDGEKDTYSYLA

B1
sequence count (endogenous NPL4 [1]): 2 | sequence coverage (endogenous NPL4 [1]): 6% | spectrum count (endogenous NPL4 [1]): 2 | sequence count (endogenous p97 [2]): 172 | sequence coverage (endogenous p97 [2]): 82.7% | spectrum count (endogenous p97 [2]): 1610 | binding result (endogenous NPL4 [3]): no binding

B2
binding result (Cullin 2): binds | binding result (Cullin 1): binds | binding result (endogenous p97 [4]): no binding

B3
binding result (endogenous p97 [5]): binds

B4
sequence count (endogenous p97 [2]): 77 | sequence coverage (endogenous p97 [2]): 61.2% | spectrum count (endogenous p97 [2]): 375 | binding result [6]: no binding

B5
binding result (Flag-p47): no binding

Reference: patent US20090192084A1 (CALIFORNIA INSTITUTE OF TECHNOLOGY, published 2009)
